Target: GST-SEB-1 (Neurospora crassa, UniProt Q7SH58 1-575)
Assay: competition
Details: protein: recombinant; tags: N-terminal GST (pGEX-4T1); blunt

B1: STRE1 oligonucleotide (18 bp) (dsDNA)
DNA 1: GGGATCCCCCTTGAATAC
DNA 2: GTATTCAAGGGGGATCCC
  binding result: binds
